In experiment [1] the target is T1, sCD28-Fc (extracellular domains of CD28 combined with the CH2 and CH3 domains of IgG1) (human, UniProt P10747 19-152).
T1 construct: extracellular domain; not shown: CH2 and CH3 domains of IgG1
Kind of experiment: ELISA competition on coated sCD28-Fc against MuTN228-biotin, reference MuTN228. In general terms: In an ELISA, binding on a coated surface is turned into a signal by an enzyme label.

Experiment [2] addresses T2, CD28 on P815/CD28+ cells (P815 mouse mastocytoma stably transfected with CD28) (human, UniProt P10747 19-220).
T2 construct: whole, on cells; also called CD28 antigen; CD28 molecules on P815/CD28^+ cells
The experiment is described as follows: competition against ^125I-labeled MuTN228 on P815/CD28+ cells, Expt 1.

Experiment [3] concerns the target T1, sCD28-Fc (extracellular domains of CD28 …). The experiment is described as follows: ELISA competition on coated sCD28-Fc against MuTN228-biotin, Expt 2.
For experiment [4], the target named is T2, CD28 on P815/CD28+ cells (P815 mouse …). Kind of experiment: competition against ^125I-labeled MuTN228 on P815/CD28+ cells, Expt 3.
The target in experiment [5] is T1, sCD28-Fc (extracellular domains of CD28 …). Kind of experiment: ELISA competition on coated sCD28-Fc against MuTN228-biotin, Expt 1.
The target of experiment [6] is T2, CD28 on P815/CD28+ cells (P815 mouse …). Kind of experiment: competition against ^125I-labeled MuTN228 on P815/CD28+ cells, reference MuTN228.
Experiment [7] concerns the target T1, sCD28-Fc (extracellular domains of CD28 …). Kind of experiment: ELISA competition on coated sCD28-Fc against MuTN228-biotin, average of 3 experiments (Std. Dev. 0.14).
Experiment [8] concerns the target T2, CD28 on P815/CD28+ cells (P815 mouse …). The experiment is described as follows: competition against ^125I-labeled MuTN228 on P815/CD28+ cells, Expt 2.
For experiment [9] the target is unchanged. Kind of experiment: competition against ^125I-labeled MuTN228 on P815/CD28+ cells, average of 3 experiments (St. Dev. 0.26).

This is an account of results in patent US20040116675A1 (published 2004).

B1: HuTN228 (humanized TN228-IgG2M3) (antibody, V domains shown)
VH: QVQLQESGPGLVKPSETLSLTCAVSGFSLTSYGVHWIRQPPGKGLEWLGVIWPGGGTNFNSALMSRLTISEDTSKNQVSLKLSSVTAADTAVYYCARDRAYGNYLYAMDYWGQGTLVTVSS
VL: DIQMTQSPSSLSASVGDRVTITCRASESVEYYVTSLMQWYQQKPGKAPKLLIYAASNVDSGVPSRFSGSGSGTDFTLTISSLQPEDIATYYCQQSRKVPFTFGGGTKVEIK
For the molecule B1, the “fold less relative binding than MuTN228” value in experiment [1] came to 2.6 fold. The IC50 (as a rule, the concentration that gives 50% inhibition) in [2] stood at 2.65 nM; in [3], 0.64 mg/L; in [4] it was 2.13 nM; in experiment [5], 0.37 mg/L; in [7], 0.5 mg/L; in [8], 2.43 nM. The molecule further gave an IC50 in experiment [9] of 2.4 nM. Further, in experiment [6], the “fold less apparent binding affinity than MuTN228” value is ~2.4 fold.
